B1: TPR t1 (parent)
chain: GACCAAUCUGCCCUCAGAGCUCGAGAACAUCUUCGGAUGCAGAGGAGGCAGGCUUCGGUGGCGCGAUAGCGCCAACGUCCUCAACCUCCAAUGCAUCCCACCACAUGAUGAUGCCUGAAGAGCCUUGGUUUUUUG

From the RNAGym collection of RNA variant scans (doi:10.1073/pnas.2313332121) come the findings set out here.

The variants in this data set derive from B1. The data set can be described thus: polymerase ribozyme fitness, log enrichment relative to wild type (log ratio); higher = more active; in vitro selection for triplet polymerase activity. The essentials: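 The heterodimeric triplet polymerase ribozyme's subunits were each mutagenized into PCR-built libraries and transcribed. Every library was selected once, in triplicate, by annealing with a biotinylated primer, the partner subunit and triplets, incubating frozen at −7 °C, gel-excising extended constructs, capturing on streptavidin beads and running RT-PCR. Input and output libraries were Illumina-sequenced, with genotypes kept only at ≥10 input reads and ≥1 read per output. Fitness, from inverse-variance-weighted replicate averages, is the base-2 logarithm of genotype enrichment over wild-type enrichment.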
As to A2G C73U, the “polymerase ribozyme fitness (log ratio)” value was -0.754.
For the variant G63A C64U C73G C80U G93A C97U G117U, the “polymerase ribozyme fitness (log ratio)” value is -6.14.
Take G48U C56A U92A: the “polymerase ribozyme fitness (log ratio)” value is -4.35.
Regarding C8G C20G C34U U112A, the “polymerase ribozyme fitness (log ratio)” value was -5.8.
For G69C U130A the value was -1.59.
For U81A C94U G117A C123G the value was -5.66; for C12A A46U G47C C124G, -0.295.
On to U9A A43C C82G A108G C123G U131A, for which the “polymerase ribozyme fitness (log ratio)” value is -5.6.
With U14G G71A, the “polymerase ribozyme fitness (log ratio)” value is -1.59.
Regarding A2U C13U A41G A43U C49U U92C G93C C115U U131G U132A, the “polymerase ribozyme fitness (log ratio)” value was -4.38.
In the case of A46C U54A G120U it was -0.501; in that of C8G A50C C73U G93A, -0.0523.
Turning to C13U C98U, the “polymerase ribozyme fitness (log ratio)” value is -1.1.
Take U87A G93A: the “polymerase ribozyme fitness (log ratio)” value was -0.908.
For A5C G44U G77U the value was -2.37; for G45C A119G U131G U132A, 0.0169.
Regarding G17U A18U G39U C123A, the “polymerase ribozyme fitness (log ratio)” value is -4.71.
In the case of U30C A37C it was -3.86.
Take A66U C76U U106C A119G U126C U130A: the “polymerase ribozyme fitness (log ratio)” value was -2.47.
In the case of C64U A83C it was -0.261; in that of C13A C56A, -1.3; in that of A29G G71A U92C U129C, -4.75.
Take G63U A103G: the “polymerase ribozyme fitness (log ratio)” value is -5.82.
For C4U C11U C104U C115A the value was -2.94.
For A27U G71U G93U the value was -5.1; for C40U C70A, -1.93.
As for A29U A43U, the “polymerase ribozyme fitness (log ratio)” value is -3.3.
Turning to U32C A46G U109A, the “polymerase ribozyme fitness (log ratio)” value was -3.86.
In the case of A2U C22G U33C C34A it was -5.51.
Turning to G61U U87G U106A, the “polymerase ribozyme fitness (log ratio)” value is -0.129.
For A27C C49U G61U U92C the value was -6.24.
Take C56A C101A: the “polymerase ribozyme fitness (log ratio)” value is -0.979.
For G69C C72A C94G the value was -5.12.
As to G52C G127U, the “polymerase ribozyme fitness (log ratio)” value is -1.33.
For A27U U81C U132C, the “polymerase ribozyme fitness (log ratio)” value is -4.09.
In the case of A5U G63C G117A it was -3.54; in that of A5U A29U, -1.95.
For U21A G60A A74U A100U U125G U132A the value was -0.987; for C8U C49A, 0.373; for G69A A121U U126G, -2.09.
Take G45A G63C G110A: the “polymerase ribozyme fitness (log ratio)” value is -1.54.
Take C12G C15U G61A: the “polymerase ribozyme fitness (log ratio)” value is -0.982.
In the case of C82U G113U it was -2.32.
On to C79U C89A G117U C123G, for which the “polymerase ribozyme fitness (log ratio)” value was -1.41.
Turning to A2G U32C C40G C49A, the “polymerase ribozyme fitness (log ratio)” value is -1.76.
In the case of A50G C79G U87G it was -0.314.
With G48U C88G G113C A121C, the “polymerase ribozyme fitness (log ratio)” value is -3.7.
For C98U U125A the value was -1.46.
For C20G A37G A118U the value was -3.12.
For the variant U9G C34U A103U, the “polymerase ribozyme fitness (log ratio)” value is -4.66.
In the case of C70U G77U U78C A95U C123G it was 0.382; in that of C34A C72G G107U U109G A121G, -5.86; in that of C62U C115G U129A, -3.05.
For C12U A18U C40U U106C C114G the value was -2.23; for C20U C40A G63U C123U, -3.75.
In the case of C4G U9C C15A U55C C73A C79G it was -2.6; in that of A90G U126A, -1.39.
C49G C85G U116G: the “polymerase ribozyme fitness (log ratio)” value is -3.63.
In the case of C22U G44C, the “polymerase ribozyme fitness (log ratio)” value was -4.2.
In the case of G57C C114G U131C it was -2.69; in that of C40U C53U, -0.572.
As for U21C C28A G63A U92G C124A G127A, the “polymerase ribozyme fitness (log ratio)” value was -7.31.
In the case of A43C U87C C89A A91U U92G G93C U125G it was -4.91; in that of C13U G69C U116C G120C, -0.88; in that of G65A G117A, -4.47.
In the case of G10C C15U C53U C123A it was 0.897; in that of U9A C13A G42C A43U A100U, -3.76.
Consider C8U C15A G69A C73A C102U C123A, for which the “polymerase ribozyme fitness (log ratio)” value is -5.63.
In the case of C64U U133A it was -0.0271.
Turning to U38A G127A, the “polymerase ribozyme fitness (log ratio)” value was -2.5.
Take C70U C115G U116C: the “polymerase ribozyme fitness (log ratio)” value is -4.43.
As to C8G G113U, the “polymerase ribozyme fitness (log ratio)” value was -1.24.
In the case of A37U G45A C72G it was -1.92.
C101G C102G G110C: the “polymerase ribozyme fitness (log ratio)” value is -4.36.
For G36A C49A C56U, the “polymerase ribozyme fitness (log ratio)” value is -0.697.
For C53U C56U A91U the value was -1.65; for U21A C53G U54G U87A U133A, -3.43.
For the variant U9C G117A, the “polymerase ribozyme fitness (log ratio)” value amounted to 0.892.
In the case of G69C C94U it was -1.35; in that of G10U C73A U78G A111G, 0.173; in that of C56U G69U G120U, -1.89.
For U7G G10A G39U G69C C101G G110C the value was -7.07; for A5U A41C U55C U59C C82G G120C U125A, -2.81.
G71C C79A: the “polymerase ribozyme fitness (log ratio)” value was -1.86.
In the case of A2C G57C G71A U92G G120A it was -6.04; in that of C8U A24G G36A G44U C72U, -2.98.
In the case of C12A U87A C89G C94A G113A it was -6.04.
For G10U C73U U92A C101U C104U the value was -3.23.
As for C12U A18C G52U C79A G127C, the “polymerase ribozyme fitness (log ratio)” value is -2.61.
For G42A C49U C56U U130G the value was -3.07; for C49U G60A A83G U133A, -0.755.
Turning to G60A C88U G122A, the “polymerase ribozyme fitness (log ratio)” value was -2.19.
In the case of G69A G120U it was -2.36.
As for G48C C82A A84C, the “polymerase ribozyme fitness (log ratio)” value was -1.03.
On to G71C A84U, for which the “polymerase ribozyme fitness (log ratio)” value was -2.77.
In the case of C72U G117C U125G it was -5.63; in that of U9A C56A A66U, -0.548.
Take A68U C124U: the “polymerase ribozyme fitness (log ratio)” value was -5.86.
For the variant G69U C94U U112C, the “polymerase ribozyme fitness (log ratio)” value worked out at 1.42.
Take C11G G35C G71U G110U: the “polymerase ribozyme fitness (log ratio)” value was -7.04.
With C11G G63C, the “polymerase ribozyme fitness (log ratio)” value is -0.406.
For G23A G48A C86G the value was -6.91.
In the case of A16C A50U it was -4.64; in that of A29U C114G, -4.29; in that of G36U U81C G107C, -5.8.
In the case of C98G U116A C124G, the “polymerase ribozyme fitness (log ratio)” value is -4.52.
In the case of G120C C124A it was 1.02; in that of C56U G135C, 0.59.
In the case of A6U A26U C70A G120U it was -5.12; in that of C8G C89A A105C, -4.02; in that of A50C A84C, -1.1.
Turning to C49U C64U, the “polymerase ribozyme fitness (log ratio)” value was -0.897.
In the case of C8A A91G C98U it was -1.37.
As to C11A G60A U112A A118U, the “polymerase ribozyme fitness (log ratio)” value amounted to 0.704.
For C53G G113A the value was -1.24; for A6G U7G A18C G48U C53A G63A C115A, -1.55.
For A41G A90G, the “polymerase ribozyme fitness (log ratio)” value is 0.631.
For A5G C53U G71A G113A the value was -2.7.
For C12G A43U A75U C124G the value was 0.348; for A41G A66G, -1.87.
In the case of C13U U38G G63U C79G C88U C99G G110U G113U it was -6.9; in that of G69A C82U G120A G122U, -2.26; in that of U14G A50G A84G, -3.03.
In the case of G51U C62U U112G, the “polymerase ribozyme fitness (log ratio)” value is -5.35.
U9A A26G G47A C49U C82G G107U: the “polymerase ribozyme fitness (log ratio)” value was -6.22.
In the case of G71A A91G A121U it was -0.169.
For C11G G36U A43U G61A G63A C115U U125A U132A the value was -6.45; for C34U G63C, -3.94; for G113C U126C, -2.46.
For the variant U78C U87A, the “polymerase ribozyme fitness (log ratio)” value came to 1.12.
For U87C A90C C115A the value was -0.371.
For C12A G117C A121C U132A the value was -5.13; for G63C C101U C102U G120C, -2.17; for C13U G19A A41U G44U G69U, -2.81.
With C11G G120A, the “polymerase ribozyme fitness (log ratio)” value worked out at 1.51.
Consider G42A C49G C72A C94U U130A U132C, for which the “polymerase ribozyme fitness (log ratio)” value is -3.26.
As to C4U G58C C97G, the “polymerase ribozyme fitness (log ratio)” value is -4.76.
Consider U38G C53U C124U, for which the “polymerase ribozyme fitness (log ratio)” value came to 0.103.
In the case of G10C C76G it was -1.17; in that of G10U G39U G63U G120A, -0.0221; in that of G36A C86G, -2.04.
As for C64U U112G C124G G135A, the “polymerase ribozyme fitness (log ratio)” value amounted to 1.56.
For G42A C114G the value was -2.75; for C13G C56G C86G C98A C101A C102U G113A, -6.46.
In the case of C53G C123A it was 0.261.
In the case of A2U U7A A46C G48A C82A G127C it was -4.28; in that of U54A C62U C72G, -1.24; in that of A16G A84U A90C, -2.9.
On to C53G C114U G127C, for which the “polymerase ribozyme fitness (log ratio)” value was -2.8.
In the case of G36U A50U A118U it was -1.34; in that of C49G C70U U129A, -2.63; in that of C4U A26G A41U C72U U87G A111C, -4.
Take C3A A16U C73G: the “polymerase ribozyme fitness (log ratio)” value was -3.81.
In the case of C13G G48C G63U A105C C124A it was -4.22; in that of C64G C79G G120A G135C, -5.74; in that of A37C C62G A83U C88U, -2.61.
For C82G A95C G110U the value was -3.96; for C56U C98A G120U, -4.12.
Take C20G G44U C56A A68G C98A C114U: the “polymerase ribozyme fitness (log ratio)” value was -6.77.
In the case of C56A C72U it was -0.391; in that of C15A C70G C99A G117A C124A G128A, -6.67; in that of C15U G42U U87G C88A C101U G113U, -5.85.
In the case of C13U G17U C49U A50C it was -2.06; in that of C11U A46U C86U, -2.1.
For C13G U59C C124A the value was 1.58; for U7G G117C G122U, -4.49; for G61C C79A C80U, -4.17.
